Ends that are not written are not given here.
B1: polypeptide obtained by Example 1: Purified S5 fraction polypeptide from small granules of horseshoe crab hemocytes; 79 amino acids, about 8,200 by SDS-PAGE (protein)
chain: NPLIPAIYIGATVGPSVWAYLVALVGAAAVTAANIRRASSDNHSCAGNRGWCRSKCFRHEYVDTYYSAVCGRYFCCRSR

Legend:
Type in all cases: cell-based
[1] = tested on: Escherichia coli; experiment: Antimicrobial activity, growth inhibition at a single concentration (colony count); conditions: 50 μl of 40 μg/ml polypeptide added to 450 μl of 10,000 CFU/ml suspension in 10 mM phosphate buffer pH 7.0; 37° C. 1 hr
Experimental: (§1) Escherichia coli was suspended in 10 mM phosphate buffer, pH 7.0, at a concentration of 10,000 CFU/ml and 450 μl of the suspension was mixed with 50 μl each of polypeptide fraction T3 (polypeptide of [Formula 4]) (SEQ ID NO:3), T6 (polypeptide of [Formula 5]) (SEQ ID NO:4), and a polypeptide obtained by Example 1 each having a concentration of 40 μg/ml, and as a control 10 mM phosphate buffer, pH 7.0. The mixtures were incubated at 37° C. for 1 hr. Then, 100 μl of incubated mixture was inoculated in an agar medium, cultured at 37° C. for 12 hrs. and the number of colonies were counted with naked eye.

[2] = tested on: Staphylococcus aureus; experiment: as above; conditions: 50 μl of 40 μg/ml polypeptide added to 450 μl of 5,000 CFU/ml suspension in 10 mM phosphate buffer pH 7.0; 37° C. 1 hr
Experimental: as §1, with “In addition, Staphylococcsii aureus” for “Escherichia coli”, “5,000” for “10,000”, “4]),” for “4]) (SEQ ID NO:3),”

[3] = tested on: Candida albicans; experiment: Determination of antimicrobial activity (colony count after 1 hr incubation in hypotonic buffer); conditions: 10 mM phosphate buffer pH 7.0 (hypotonic), 37° C. 1 hr, then agar culture 12 hrs
Experimental: (§2) Various microorganisms shown in Table 3 were suspended in 10 mM phosphate buffer, pH 7.0 (hypotonic solution). In 900 μl of 5,000-10,000 CFU/ml suspension, 100 μl of 2-fold serial diluted polypeptide solution at a concentration of 20 μg/ml obtained by Example 1 was added and incubated at 37° C. for 1 hr. Then, 100 μl of incubated mixture was inoculated in an agar medium, cultured at 37° C. for 12 hrs. and the number of colonies was counted with naked eye (see Infections and Immunity, 42, 10-14 (1983)). CFU means colony forming unit.

[4] = tested on: Escherichia coli; experiment: as above; conditions: 10 mM phosphate buffer pH 7.0 (hypotonic), 37° C. 1 hr, then agar culture 12 hrs
Experimental: as §2

[5] = tested on: Klebsiella pneumoniae; experiment: as above; conditions: 10 mM phosphate buffer pH 7.0 (hypotonic), 37° C. 1 hr, then agar culture 12 hrs
Experimental: as §2

[6] = tested on: S. minnesota Re; experiment: as above; conditions: 10 mM phosphate buffer pH 7.0 (hypotonic), 37° C. 1 hr, then agar culture 12 hrs
Experimental: as §2

[7] = tested on: Salmonella typhimurium LT2(S); experiment: as above; conditions: 10 mM phosphate buffer pH 7.0 (hypotonic), 37° C. 1 hr, then agar culture 12 hrs
Experimental: as §2

[8] = tested on: Staphylococcus aureus; experiment: as above; conditions: 10 mM phosphate buffer pH 7.0 (hypotonic), 37° C. 1 hr, then agar culture 12 hrs
Experimental: as §2

| Molecule | inhibited the growth of Escherichia coli at a rate of [1] | inhibited the growth of Staphylococcus aureus at a rate of [2] | IC50 (μg/ml) (hypotension) [3] | IC50 in hypotonic buffer [4] | IC50 (μg/ml) (hypotension) [5] | IC50 (μg/ml) (hypotension) [6] | IC50 (μg/ml) (hypotension) [7] | IC50 (μg/ml) (hypotension) [8] |
| --- | --- | --- | --- | --- | --- | --- | --- | --- |
| T3: Trypsin degradation fraction of the Example 1 polypeptide, eluted at 27 min; 42 residues, C-terminal defensin-like part (ASSDNHSCAGNRGWCRSKCFRHEYVDTYYSAVCGRYFCCRSR; not fully specified (bridges); cysteine pairing not given here) | about 90% | about 30% | – | – | – | – | – | – |
| B1 | ≥ 95% | almost completely | 10 to 20 µg/mL | 2.5 µg/mL | < 1.3 µg/mL | < 0.6 µg/mL | 20 µg/mL | < 2.5 µg/mL |

Reference: patent US5965725A, “Polypeptides, and preparation and DNA encoding thereof” (Seikagaku Kogyo Kabushiki Kaisha, priority 1994, dated 1999)
